From publication doi:10.1101/2023.11.17.567542 (bioRxiv, 2023)

Target: T1, HypD (Escherichia coli, UniProt P24192 1-373)
T1 sequence (looked up): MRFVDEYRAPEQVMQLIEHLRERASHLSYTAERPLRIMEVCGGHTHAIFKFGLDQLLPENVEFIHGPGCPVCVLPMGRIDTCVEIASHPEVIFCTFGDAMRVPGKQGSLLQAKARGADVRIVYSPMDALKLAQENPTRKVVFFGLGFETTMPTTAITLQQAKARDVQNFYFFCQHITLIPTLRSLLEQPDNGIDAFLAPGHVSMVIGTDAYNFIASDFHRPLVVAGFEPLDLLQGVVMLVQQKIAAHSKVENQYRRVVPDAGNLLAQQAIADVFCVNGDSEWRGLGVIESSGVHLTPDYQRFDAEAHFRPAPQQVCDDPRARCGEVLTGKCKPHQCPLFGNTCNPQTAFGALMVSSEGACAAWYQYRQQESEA
Assay: pull-down

B1: StrepII-tagged HypC with amino acid exchange C2A (natural protein, Escherichia coli, UniProt P0AAM3 2-90, looked up)
chain: AIGVPGQIRTIDGNQAKVDVCGIQRDVDLTLVGSCDENGQPRVGQWVLVHVGFAMSVINEAEARDTLDALQNMFDVEPDVGALLYGEEK
binding result: binds
